Experiment [1] deals with human cathepsin G (human) (UniProt P08311).
For experiment [2], the target named is human cathepsin L (human).

Chain of human cathepsin G (human) (P08311 21-244): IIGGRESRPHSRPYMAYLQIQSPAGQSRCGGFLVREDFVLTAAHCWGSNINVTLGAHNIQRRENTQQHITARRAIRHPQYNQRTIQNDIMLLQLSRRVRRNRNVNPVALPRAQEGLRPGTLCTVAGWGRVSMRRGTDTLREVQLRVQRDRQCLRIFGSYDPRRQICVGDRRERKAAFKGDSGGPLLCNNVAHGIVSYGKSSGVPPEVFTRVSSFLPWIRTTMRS

In experiment [1], “recombinant His-tagged ANISERP protein (baculovirus system) (from UniProt F4MST7 1-397) (natural protein)” returned an IC50 of inhibition of cathepsin G (0.33 nM) proteolytic activity on N-succinyl-Ala-Ala-Phe-AMC of 0.542 µM. This substance displayed an IC50 of inhibition of thrombin (74 nM) proteolytic activity on Boc-Val-Arg-AMC after 10 min at 37 °C with ANISERP in the experiment with human thrombin (human) of 0.152 µM. Besides, the IC50 of inhibition of cathepsin L (0.83 nM) proteolytic activity on Z-Phe-Arg-AMC in experiment [2] was 0.217 µM. Further, the IC50 of inhibition of trypsin (54 nM) proteolytic activity on Boc-Gln-Ala-Arg-AMC with human trypsin (human) stood at 0.173 µM.

These data come from PMC4517634.
